6 substances from patent US20050118646A1 can be followed below.

For experiment [1], the target named is Neutravidin (UltraLink neutravidin beads, Pierce; neutravidin protein) (UniProt P02701). Put plainly: ELIFA; binding of the biotinylated protein to Ultralink Neutravidin beads (through biotin).
Experiment [2] has the same target. Put plainly: Western blot (streptavidin-HRP) of sample and supernatant after binding to Neutravidin beads. A general note: In western blotting, separated proteins are transferred to a membrane and probed.

Sequence of UniProt P02701 (P02701 25-152): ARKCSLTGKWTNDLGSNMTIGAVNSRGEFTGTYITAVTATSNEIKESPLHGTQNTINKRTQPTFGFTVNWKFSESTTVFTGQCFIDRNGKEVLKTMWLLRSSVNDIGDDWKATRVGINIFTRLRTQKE

“E24-tagged CDKN1b (AviTag-TEV cleavage site-His6-PrC-CDKN1b), biotinylated (from UniProt P46527 1-198)”: the Binding [%] in experiment [1] worked out at 100%. Besides, the percent bound to the beads in experiment [2] is > 80%.
Taken in the same sequence, the figures for “E24-tagged Grb2 (AviTag-TEV cleavage site-His6-PrC-Grb2), biotinylated (from UniProt P62993 1-217)” were 100% and > 80%.
“E24-tagged NAPA (AviTag-TEV cleavage site-His6-PrC-NAPA), biotinylated (from UniProt P54920 1-295)” came in with a Binding [%] in experiment [1] of 100%. Besides, in experiment [2], the percent bound to the beads is > 80%.
Taken in the same sequence, the figures for “E25-tagged CDKN1b (AviTag-(G4S)2-TEV cleavage site-His6-PrC-CDKN1b), biotinylated (from UniProt P46527 1-198)” were 100% and > 80%.
“E25-tagged Grb2 (AviTag-(G4S)2-TEV cleavage site-His6-PrC-Grb2), biotinylated (from UniProt P62993 1-217)”: the Binding [%] in experiment [1] came out at 100%. Further, the percent bound to the beads in experiment [2] was > 80%.
“E25-tagged NAPA (AviTag-(G4S)2-TEV cleavage site-His6-PrC-NAPA), biotinylated (from UniProt P54920 1-295)” gave a Binding [%] in experiment [1] of 100%. The percent bound to the beads in experiment [2] is > 80%.
